Columns and labels:
[1] = molecular target: HLA-B*2705 (B27) single antigen on Luminex beads (human); test: Luminex single antigen, iBeads (#6), IVIg 1:4
[2] = molecular target: HLA-B*2708 (B27) single antigen on Luminex beads (human); test: Luminex single antigen, iBeads (#6), IVIg 1:4
[3] = molecular target: HLA-B*3501 (B35) single antigen on Luminex beads (human); test: Luminex single antigen, iBeads (#6), IVIg 1:4
[4] = molecular target: HLA-B*3701 (B37) single antigen on Luminex beads (human); test: Luminex single antigen, iBeads (#6), IVIg 1:4
[5] = molecular target: HLA-B*3801 (B38) single antigen on Luminex beads (human); test: Luminex single antigen, iBeads (#6), IVIg 1:4
[6] = molecular target: HLA-B*3901 (B39) single antigen on Luminex beads (human); test: Luminex single antigen, iBeads (#6), IVIg 1:4
[7] = molecular target: HLA-B*4001 (B60) single antigen on Luminex beads (human); test: Luminex single antigen, iBeads (#6), IVIg 1:4
[8] = molecular target: HLA-B*4002 (B61) single antigen on Luminex beads (human); test: Luminex single antigen, iBeads (#6), IVIg 1:4
[9] = molecular target: HLA-B*4006 (B61) single antigen on Luminex beads (human); test: Luminex single antigen, iBeads (#6), IVIg 1:4
[10] = molecular target: HLA-B*4101 (B41) single antigen on Luminex beads (human); test: Luminex single antigen, iBeads (#6), IVIg 1:4
[11] = molecular target: HLA-B*4201 (B42) single antigen on Luminex beads (human); test: Luminex single antigen, iBeads (#6), IVIg 1:4
[12] = molecular target: HLA-B*4402 (B44) single antigen on Luminex beads (human); test: Luminex single antigen, iBeads (#6), IVIg 1:4
[13] = molecular target: HLA-B*4403 (B44) single antigen on Luminex beads (human); test: Luminex single antigen, iBeads (#6), IVIg 1:4
[14] = molecular target: HLA-B*4501 (B45) single antigen on Luminex beads (human); test: Luminex single antigen, iBeads (#6), IVIg 1:4
[15] = molecular target: HLA-B*4601 (B46) single antigen on Luminex beads (human); test: Luminex single antigen, iBeads (#6), IVIg 1:4
[16] = molecular target: HLA-B*4701 (B47) single antigen on Luminex beads (human); test: Luminex single antigen, iBeads (#6), IVIg 1:4
[17] = molecular target: Albumin on negative control beads (serum albumin, HSA/BSA) (human or bovine); test: Luminex, iBead MFI against regular bead MFI, 1:4
[18] = molecular target: HLA-B*2708 (B27) single antigen on Luminex beads (human); test: Luminex single antigen, regular beads (#7), IVIg 1:4
[19] = molecular target: HLA-B*3501 (B35) single antigen on Luminex beads (human); test: as above
[20] = molecular target: HLA-B*3701 (B37) single antigen on Luminex beads (human); test: as above
[21] = molecular target: HLA-B*3801 (B38) single antigen on Luminex beads (human); test: as above
[22] = molecular target: HLA-B*3901 (B39) single antigen on Luminex beads (human); test: as above
[23] = molecular target: HLA-B*4001 (B60) single antigen on Luminex beads (human); test: as above
[24] = molecular target: HLA-B*4006 (B61) single antigen on Luminex beads (human); test: as above
[25] = molecular target: HLA-B*4101 (B41) single antigen on Luminex beads (human); test: as above
[26] = molecular target: HLA-B*4201 (B42) single antigen on Luminex beads (human); test: as above
[27] = molecular target: HLA-B*4402 (B44) single antigen on Luminex beads (human); test: as above
[28] = molecular target: HLA-B*4403 (B44) single antigen on Luminex beads (human); test: as above
[29] = molecular target: HLA-B*4501 (B45) single antigen on Luminex beads (human); test: as above
[30] = molecular target: HLA-B*4601 (B46) single antigen on Luminex beads (human); test: as above
[31] = molecular target: HLA-B*4701 (B47) single antigen on Luminex beads (human); test: as above
[32] = molecular target: Albumin on negative control beads (serum albumin, HSA/BSA) (human or bovine); test: Luminex single antigen beads, regular beads (#7), 1:4
[33] = molecular target: HLA-A*0301 (A3) on single antigen beads (human) (UniProt P04439); test: as above
[34] = molecular target: HLA-B*2705 (B27) single antigen on Luminex beads (human); test: Luminex single antigen, iBead vs regular bead, IVIg 1:4
[35] = molecular target: HLA-B*2708 (B27) single antigen on Luminex beads (human); test: as above
[36] = molecular target: HLA-B*3501 (B35) single antigen on Luminex beads (human); test: as above
[37] = molecular target: HLA-B*3701 (B37) single antigen on Luminex beads (human); test: as above
[38] = molecular target: HLA-B*3801 (B38) single antigen on Luminex beads (human); test: as above
[39] = molecular target: HLA-B*3901 (B39) single antigen on Luminex beads (human); test: as above
[40] = molecular target: HLA-B*4001 (B60) single antigen on Luminex beads (human); test: as above
[41] = molecular target: HLA-B*4002 (B61) single antigen on Luminex beads (human); test: as above
[42] = molecular target: HLA-B*4006 (B61) single antigen on Luminex beads (human); test: as above
[43] = molecular target: HLA-B*4101 (B41) single antigen on Luminex beads (human); test: as above
[44] = molecular target: HLA-B*4402 (B44) single antigen on Luminex beads (human); test: as above
[45] = molecular target: HLA-B*4403 (B44) single antigen on Luminex beads (human); test: as above
[46] = molecular target: HLA-B*4601 (B46) single antigen on Luminex beads (human); test: as above
[47] = molecular target: HLA-B*4701 (B47) single antigen on Luminex beads (human); test: as above

- MFI [1]: 377 MFI
- MFI [2]: 302 MFI
- MFI [3]: 352 MFI
- MFI [4]: 740 MFI
- MFI [5]: 248 MFI
- MFI [6]: 0 MFI
- MFI [7]: 409 MFI
- MFI [8]: 242 MFI
- MFI [9]: 359 MFI
- MFI [10]: 182 MFI
- MFI [11]: 86 MFI
- MFI [12]: 461 MFI
- MFI [13]: 413 MFI
- MFI [14]: 612 MFI
- MFI [15]: 473 MFI
- MFI [16]: 655 MFI
- Difference % (iBead against regular bead) [17]: -44%
- MFI [18]: 13 MFI
- MFI [19]: 243 MFI
- MFI [20]: 1100 MFI
- MFI [21]: 254 MFI
- MFI [22]: 0 MFI
- MFI [23]: 237 MFI
- MFI [24]: 765 MFI
- MFI [25]: 32 MFI
- MFI [26]: 0 MFI
- MFI [27]: 683 MFI
- MFI [28]: 284 MFI
- MFI [29]: 272 MFI
- MFI [30]: 537 MFI
- MFI [31]: 355 MFI
- MFI [32]: 1200 MFI
- MFI [33]: 2 MFI
- Difference % (iBead against regular bead MFI) [34]: 167%
- Difference % (iBead against regular bead MFI) [35]: 2220%
- Difference % (iBead against regular bead MFI) [36]: 45%
- Difference % (iBead against regular bead MFI) [37]: -33%
- Difference % (iBead against regular bead MFI) [38]: -2%
- Difference % (iBead against regular bead MFI) [39]: 0%
- Difference % (iBead against regular bead MFI) [40]: 73%
- Difference % (iBead against regular bead MFI) [41]: 81%
- Difference % (iBead against regular bead MFI) [42]: -53%
- Difference % (iBead against regular bead MFI) [43]: 469%
- Difference % (iBead against regular bead MFI) [44]: -33%
- Difference % (iBead against regular bead MFI) [45]: 45%
- Difference % (iBead against regular bead MFI) [46]: -12%
- Difference % (iBead against regular bead MFI) [47]: 85%
Substance: Sandoglobulin (IVIg, Novartis, Basel, Switzerland) (antibody)
